Among the data in paper PMC12102759 are screen value values, retold here.

B1: AMOTL2 peptide 64-79 (Angiomotin-like protein 2), 16-mer library wild type / TNKS ANK (TNKS 12 ANK repeats, residues 174-649) (parent)
chain 1: QVLQQATRQEPQGQEH
chain 2: TGVPAVSGALRELLEACRNGDVSRVKRLVDAANVNAKDMAGRKSSPLHFAAGFGRKDVVEHLLQMGANVHARDDGGLIPLHNACSFGHAEVVSLLLCQGADPNARDNWNYTPLHEAAIKGKIDVCIVLLQHGADPNIRNTDGKSALDLADPSAKAVLTGEYKKDELLEAARSGNEEKLMALLTPLNVNCHASDGRKSTPLHLAAGYNRVRIVQLLLQHGADVHAKDKGGLVPLHNACSYGHYEVTELLLKHGACVNAMDLWQFTPLHEAASKNRVEVCSLLLSHGADPTLVNCHGKSAVDMAPTPELRERLTYEFKGHSLLQAAREADLAKVKKTLALEIINFKQPQSHETALHCAVASLHPKRKQVTELLLRKGANVNEKNKDFMTPLHVAAERAHNDVMEVLHKHGAKMNALDTLGQTALHRAALAGHLQTCRLLLSYGSDPSIISLQGFTAAQMGNEAVQQILSESTPIRTSD
B2: MXI1 peptide 4-19 (Max-interacting protein 1), 16-mer library wild type / SIN3A PAH2 (SIN3A PAH domain, residues 295-383) (parent)
chain 1: VKMINVQRLLEAAEFL
chain 2: SLQNNQPVEFNHAINYVNKIKNRFQGQPDIYKAFLEILHTYQKEQRNAKEAGGNYTPALTEQEVYAQVARLFKNQEDLLSEFGQFLPDA
B3: MXI1 peptide 6-21 (Max-interacting protein 1), 16-mer library wild type / SIN3A PAH2 (SIN3A PAH domain, residues 295-383) (parent)
chain 1: MINVQRLLEAAEFLER
chain 2: B2 chain 2
B4: PEX5 peptide 110-125 (Peroxisomal targeting signal 1 receptor), 16-mer library wild type / PEX14 Pex14 (PEX14 PEX14, residues 16-84) (parent)
chain 1: ADLALSENWAQEFLAA
chain 2: TPGSENVLPREPLIATAVKFLQNSRVRQSPLATRRAFLKKKGLTDEEIDMAFQQSGTAADEPSSLGPAT

Variants of B1 are the subject of one experiment. In words: proteomic peptide phage display deep mutational scan (ProP-PD DMS): M13 P8 16-mer library selected against immobilised GST-tagged bait for four days (rounds), NGS of the eluted pools per day and pseudo-replica. Conditions: with TNKS ANK (TNKS 12 ANK repeats, residues 174-649); bait immobilised on MaxiSorp plates (10 µg), library pre-cleared on GST, 2 h binding at 4 °C, five washes; one round per day, days 1-4; value from days 2 and 3; keep out of graded; scale: average fractional NGS count over selection days 2 and 3.
For chain 1 G13I, the screen value was 0.

In the case of chain 1 G13W, the screen value amounted to 0.

As for chain 1 G13Q, the screen value was 0.

As to chain 1 R8P, the screen value came to 8.36e-05.

Regarding chain 1 R8I, the screen value was 0.

Consider chain 1 R8F, for which the screen value was found to be 0.

In the case of chain 1 Q12R, the screen value worked out at 4.06e-05.

chain 1 Q12K: the screen value amounted to 5.93e-05.

With chain 1 Q5W, the screen value was determined as 6.13e-05.

Consider chain 1 Q5N, for which the screen value worked out at 8.23e-05.

As to chain 1 Q5G, the screen value was 2.86e-05.

Consider chain 1 Q5D, for which the screen value is 0.000115.

Take chain 1 A6Y: the screen value came out at 5.3e-05.

As to chain 1 A6P, the screen value was 4.91e-05.

chain 1 A6K: the screen value was 7.72e-05.

For chain 1 Q9K, the screen value stood at 4.55e-05.

As to chain 1 Q9G, the screen value is 7.98e-05.

As to chain 1 Q9I, the screen value amounted to 5.19e-05.

Consider chain 1 E15K, for which the screen value worked out at 0.

In the case of chain 1 E15G, the screen value was determined as 6.84e-05.

Consider chain 1 L3W, for which the screen value was 8.89e-05.

As for chain 1 H16F, the screen value amounted to 7.99e-05.

Take chain 1 H16K: the screen value came out at 8.3e-05.

As to chain 1 H16G, the screen value came to 6.49e-05.

As for chain 1 T7D, the screen value stood at 6.07e-05.

With chain 1 T7K, the screen value is 7.17e-05.

For chain 1 T7R, the screen value was found to be 0.

In the case of chain 1 E10R, the screen value stood at 7.98e-05.

For the variant chain 1 E10D, the screen value turned out to be 9.35e-05.

For chain 1 E10W, the screen value stood at 7.2e-05.

Regarding chain 1 Q14F, the screen value was 3.1e-05.

For chain 1 Q14G, the screen value came to 0.000146.

With chain 1 P11D, the screen value was 0.

For chain 1 P11I, the screen value came out at 5.08e-05.

In the case of chain 1 P11Q, the screen value turned out to be 0.

Take chain 1 P11G: the screen value came out at 0.000112.

Take chain 1 P11R: the screen value came to 0.

Variants of B2 are the subject of another experiment. The experiment is described as above. The following applies: with SIN3A PAH2 (SIN3A PAH domain, residues 295-383); bait immobilised on MaxiSorp plates (10 µg), library pre-cleared on GST, 2 h binding at 4 °C, five washes; one round per day, days 1-4; value from days 2 and 3; keep out of graded; scale: average fractional NGS count over selection days 2 and 3.
Regarding chain 1 A13H, the screen value was 0.000246.

In the case of chain 1 A13D, the screen value was determined as 2.4e-05.

Regarding chain 1 A13G, the screen value stood at 3.3e-05.

chain 1 A13F: the screen value was found to be 0.00117.

The variants in another experiment derive from B3. The description is as above. Conditions: with SIN3A PAH2 (SIN3A PAH domain, residues 295-383); bait immobilised on MaxiSorp plates (10 µg), library pre-cleared on GST, 2 h binding at 4 °C, five washes; one round per day, days 1-4; value from days 2 and 3; keep out of graded; scale: average fractional NGS count over selection days 2 and 3.
Turning to chain 1 R6F, the screen value was found to be 4.27e-05.

On to chain 1 R6T, for which the screen value stood at 0.

As to chain 1 R6M, the screen value was found to be 6.6e-05.

For chain 1 R6D, the screen value worked out at 5.76e-05.

For chain 1 A10R, the screen value turned out to be 0.

Turning to chain 1 A10M, the screen value is 1.91e-05.

For chain 1 A10Q, the screen value is 0.

As to chain 1 A10H, the screen value was determined as 2.36e-05.

chain 1 A10I: the screen value worked out at 4.73e-05.

For the variant chain 1 V4R, the screen value came out at 0.

Consider chain 1 V4M, for which the screen value worked out at 7.16e-05.

As for chain 1 V4E, the screen value turned out to be 0.

As to chain 1 V4P, the screen value turned out to be 1.91e-05.

On to chain 1 V4S, for which the screen value stood at 0.

Turning to chain 1 V4G, the screen value came to 6.66e-05.

Regarding chain 1 A11S, the screen value was 8.92e-05.

For chain 1 A11T, the screen value worked out at 9.14e-05.

For the variant chain 1 A11V, the screen value is 2.84e-05.

Take chain 1 A11D: the screen value was determined as 0.000105.

As for chain 1 F13I, the screen value came to 1.91e-05.

chain 1 F13P: the screen value is 4.79e-05.

As for chain 1 I2G, the screen value stood at 6.22e-05.

For the variant chain 1 I2K, the screen value was found to be 0.

Take chain 1 L14T: the screen value came out at 5.17e-05.

Take chain 1 L14F: the screen value was 3.78e-05.

On to chain 1 L14Q, for which the screen value turned out to be 7.31e-05.

For the variant chain 1 L14A, the screen value amounted to 0.

As to chain 1 M1H, the screen value was determined as 8.47e-05.

For chain 1 M1L, the screen value turned out to be 3.46e-05.

Turning to chain 1 M1T, the screen value was 0.

chain 1 M1A: the screen value was found to be 6.67e-05.

As to chain 1 Q5P, the screen value was 3.48e-05.

Consider chain 1 Q5W, for which the screen value is 6.78e-05.

As for chain 1 Q5D, the screen value is 0.

For chain 1 L8N, the screen value was determined as 7.15e-05.

In the case of chain 1 L8W, the screen value worked out at 6.64e-05.

For chain 1 L8R, the screen value turned out to be 4.34e-05.

Turning to chain 1 L8A, the screen value was determined as 2.84e-05.

In the case of chain 1 L8F, the screen value worked out at 7.63e-05.

On to chain 1 L7M, for which the screen value came out at 0.

Turning to chain 1 L7V, the screen value amounted to 6.69e-05.

Take chain 1 L7R: the screen value came out at 0.

Turning to chain 1 N3Q, the screen value came out at 5.31e-05.

In the case of chain 1 N3A, the screen value was found to be 0.

On to chain 1 N3R, for which the screen value is 4.48e-05.

In a further experiment the parent is B4. Described as above. Conditions: with PEX14 Pex14 (PEX14 PEX14, residues 16-84); bait immobilised on MaxiSorp plates (10 µg), library pre-cleared on GST, 2 h binding at 4 °C, five washes; one round per day, days 1-4; value from days 2 and 3; scale: average fractional NGS count over selection days 2 and 3.
With chain 1 A1W, the screen value came to 0.

Regarding chain 1 A1H, the screen value came out at 0.

As to chain 1 A1V, the screen value came out at 0.000338.

Consider chain 1 A1K, for which the screen value was found to be 0.00027.

Regarding chain 1 A1R, the screen value was 0.00015.

For chain 1 A1L, the screen value came out at 0.000249.

As to chain 1 A15Q, the screen value amounted to 0.

For chain 1 A15Y, the screen value came out at 9.07e-05.

For chain 1 A15E, the screen value was 0.000302.

In the case of chain 1 A15T, the screen value stood at 0.000397.

With chain 1 A15N, the screen value amounted to 0.000268.

In the case of chain 1 A15G, the screen value was 9.87e-05.

With chain 1 A15S, the screen value came to 0.

Turning to chain 1 A4S, the screen value was found to be 9.07e-05.

For chain 1 A4M, the screen value came out at 0.000358.

Take chain 1 A4G: the screen value came to 0.

For chain 1 A4D, the screen value was found to be 0.000198.

Turning to chain 1 A4E, the screen value came out at 0.000166.

On to chain 1 A4Y, for which the screen value was determined as 0.000159.

Take chain 1 W9L: the screen value came out at 0.

With chain 1 W9M, the screen value was found to be 5.43e-05.

Take chain 1 W9Y: the screen value turned out to be 0.

Regarding chain 1 W9P, the screen value was 0.

As to chain 1 W9T, the screen value was 0.

On to chain 1 W9Q, for which the screen value was determined as 0.

Regarding chain 1 W9G, the screen value worked out at 0.

chain 1 E12N: the screen value was 0.

Consider chain 1 E12D, for which the screen value turned out to be 0.000116.

In the case of chain 1 E12Q, the screen value was determined as 0.000147.

chain 1 E12A: the screen value worked out at 0.000448.

As for chain 1 E12R, the screen value turned out to be 9.56e-05.

In the case of chain 1 E12K, the screen value amounted to 0.000191.

On to chain 1 E7Q, for which the screen value came to 0.000175.

chain 1 N8T: the screen value is 0.000134.

For the variant chain 1 N8R, the screen value came out at 0.

For chain 1 N8K, the screen value was 7.71e-05.

Consider chain 1 N8Y, for which the screen value was 0.000147.

For chain 1 L3R, the screen value is 0.

As to chain 1 L3E, the screen value was determined as 0.000345.

In the case of chain 1 L3S, the screen value was found to be 0.000293.

With chain 1 L3V, the screen value was determined as 0.000442.

Turning to chain 1 F13S, the screen value was found to be 9.56e-05.

Regarding chain 1 F13K, the screen value came to 0.

On to chain 1 F13T, for which the screen value worked out at 0.0002.

Consider chain 1 F13P, for which the screen value came out at 0.

For chain 1 F13L, the screen value worked out at 0.000183.

With chain 1 F13G, the screen value worked out at 0.

As to chain 1 Q11T, the screen value came out at 0.000165.

For chain 1 Q11K, the screen value was determined as 0.

As to chain 1 Q11P, the screen value is 0.

As for chain 1 Q11G, the screen value was 0.000317.

With chain 1 Q11I, the screen value was found to be 0.000186.

In the case of chain 1 L5N, the screen value was found to be 9.07e-05.

On to chain 1 L5R, for which the screen value amounted to 0.000218.

Take chain 1 L5E: the screen value amounted to 0.

In the case of chain 1 L5D, the screen value was found to be 0.

chain 1 L5I: the screen value was 9.07e-05.

Take chain 1 L5F: the screen value came to 0.000301.

Take chain 1 D2M: the screen value was found to be 0.000156.

For chain 1 D2I, the screen value is 0.000253.

chain 1 D2V: the screen value turned out to be 0.000407.

For the variant chain 1 D2G, the screen value was 0.000331.

Regarding chain 1 D2F, the screen value came out at 0.

For chain 1 D2S, the screen value came out at 0.

With chain 1 A10Q, the screen value came out at 0.

In the case of chain 1 A10D, the screen value turned out to be 0.

As to chain 1 A10S, the screen value is 0.000299.

Regarding chain 1 A10N, the screen value came to 0.000118.

Turning to chain 1 A10P, the screen value turned out to be 0.000417.

chain 1 A10M: the screen value was determined as 0.

Consider chain 1 L14A, for which the screen value is 0.000388.

For the variant chain 1 L14M, the screen value is 9.56e-05.

With chain 1 L14W, the screen value amounted to 0.000163.

As to chain 1 L14H, the screen value was 0.000116.

On to chain 1 L14G, for which the screen value turned out to be 0.

With chain 1 S6W, the screen value was found to be 0.

Take chain 1 S6M: the screen value was 0.000156.

Regarding chain 1 S6Y, the screen value is 0.000301.

As for chain 1 S6I, the screen value amounted to 0.000313.

With chain 1 S6A, the screen value came out at 0.000293.

Consider chain 1 S6T, for which the screen value was 0.
